Data set [1] addresses leptin-dimer Ab1 (UniProt P41159).
For data set [2], the target named is leptin-monomer Ab1 (UniProt P41159).
For data set [3], the target named is leptin-dimer kemptide (UniProt P41159).
In data set [4] the target is T1, malic enzyme-monomer kemptide (UniProt P26616).
T1 sequence: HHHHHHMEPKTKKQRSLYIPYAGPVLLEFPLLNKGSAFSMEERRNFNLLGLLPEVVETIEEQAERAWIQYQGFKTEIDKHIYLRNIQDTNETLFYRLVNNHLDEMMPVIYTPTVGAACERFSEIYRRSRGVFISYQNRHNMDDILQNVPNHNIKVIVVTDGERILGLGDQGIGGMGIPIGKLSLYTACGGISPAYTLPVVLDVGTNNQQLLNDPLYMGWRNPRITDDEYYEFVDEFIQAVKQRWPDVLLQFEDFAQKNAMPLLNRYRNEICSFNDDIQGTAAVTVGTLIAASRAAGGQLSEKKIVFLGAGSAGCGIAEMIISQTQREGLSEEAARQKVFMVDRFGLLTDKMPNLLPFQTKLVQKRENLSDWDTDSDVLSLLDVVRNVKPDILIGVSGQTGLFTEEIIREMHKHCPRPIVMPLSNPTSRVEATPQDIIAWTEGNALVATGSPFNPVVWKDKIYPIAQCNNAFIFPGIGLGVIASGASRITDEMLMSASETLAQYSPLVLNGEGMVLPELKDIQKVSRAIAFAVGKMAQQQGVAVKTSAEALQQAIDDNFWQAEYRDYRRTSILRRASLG

Sequence of leptin-dimer Ab1 (P41159 other isoform, or with tags, fused parts or gaps): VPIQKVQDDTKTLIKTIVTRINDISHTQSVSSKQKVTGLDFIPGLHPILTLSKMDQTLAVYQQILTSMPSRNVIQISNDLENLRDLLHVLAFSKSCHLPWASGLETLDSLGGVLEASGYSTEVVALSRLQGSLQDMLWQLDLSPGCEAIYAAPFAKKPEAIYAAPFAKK
Sequence of leptin-monomer Ab1 (P41159 other isoform, or with tags, fused parts or gaps): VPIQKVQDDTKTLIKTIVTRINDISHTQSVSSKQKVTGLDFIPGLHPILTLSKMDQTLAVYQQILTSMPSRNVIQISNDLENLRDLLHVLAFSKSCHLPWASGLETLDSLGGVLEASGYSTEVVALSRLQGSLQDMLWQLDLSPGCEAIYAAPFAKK
Sequence of leptin-dimer kemptide (P41159 other isoform, or with tags, fused parts or gaps): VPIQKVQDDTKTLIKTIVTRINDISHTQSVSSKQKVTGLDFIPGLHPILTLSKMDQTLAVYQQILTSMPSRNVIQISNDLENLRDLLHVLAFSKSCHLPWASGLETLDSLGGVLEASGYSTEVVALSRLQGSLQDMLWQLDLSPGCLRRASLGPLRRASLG

In the case of Ab1 kinase, the “fluorometric analysis of phosphorylation on protein chip (Cy5-labeled anti-phosphorylation tyrosine antibody)” value in data set [1] was “the Ab1 kinase showed a specific interaction with the Ab1 monomer and dimer fused with leptin”; in data set [2], “the Ab1 kinase showed a specific interaction with the Ab1 monomer and dimer fused with leptin”.
On to protein kinase A, for which, in data set [3], the “fluorometric analysis of phosphorylation on protein chip, 10-fold diluted spots” value was “In a diluted state as shown by 2 and 4, the dimer showed a higher reactivity than the monomer”. Moreover, in data set [4], the “fluorometric analysis of phosphorylation on protein chip (Cy3-labeled anti-phosphorylation serine antibody)” value is “the protein kinase A showed a specific interaction with the kemptide of a form fused with the leptin or malic enzyme”.

Values taken from patent US20060105407.
